Laboratory results taken from publication doi:10.1101/2020.02.14.947937 (bioRxiv, 2020).

Molecular target: the molecule itself
Test: cryo-EM structure

B1: mouse homomeric 5-HT3A receptor (receptor, UniProt P23979 24-489, looked up)
chain: SRRRATQARDTTQPALLRLSDHLLANYKKGVRPVRDWRKPTTVSIDVIMYAILNVDEKNQVLTTYIWYRQYWTDEFLQWTPEDFDNVTKLSIPTDSIWVPDILINEFVDVGKSPNIPYVYVHHRGEVQNYKPLQLVTACSLDIYNFPFDVQNCSLTFTSWLHTIQDINITLWRSPEEVRSDKSIFINQGEWELLEVFPQFKEFSIDISNSYAEMKFYVIIRRRPLFYAVSLLLPSIFLMVVDIVGFCLPPDSGERVSFKITLLLGYSVFLIIVSDTLPATAIGTPLIGVYFVVCMALLVISLAETIFIVRLVHKQDLQRPVPDWLRHLVLDRIAWILCLGEQPMAHRPPATFQANKTDDCSGSDLLPAMGNHCSHVGGPQDLEKTPRGRGSPLPPPREASLAVRGLLQELSSIRHFLEKRDEMREVARDWLRVGYVLDRLLFRIYLLAVLAYSITLVTLWSIWHYS
modifications: N-linked carbohydrates
B1 was tested. Which “stoichiometry N” value did it give?
The value was 5.
